The target of experiment [1] is T1, human Interleukin-17A (hIL-17A) (human, UniProt Q16552 24-154). The experiment is described as follows: cell-based or functional assay.
Experiment [2] deals with T1, human Interleukin-17A (hIL-17A). Nature of the experiment: SPR, Biacore T200, 25 C, antibody captured on Protein A CM5 chip, hIL-17A in flow, 1:1 model, mean of two runs.
Method: The Protein A was chemically coupled to the CM5 chip, and an appropriate amount of antibody was immobilized by the capture method, so that the Rmax was less than 50 RU, and the capture flow rate was 10 μl/min. The antigen was gradually diluted, and the flow rate of the instrument was switched to 30 μl/min. The diluted antigen was flowed through the reference channel and the channel of immobilized antibody in sequence from low to high concentration, and the running buffer was flowed through as a negative control. After each binding and dissociation was completed, the chip was regenerated with glycine, pH1.5. Fitting was performed with the build-in software in the instrument according to a 1:1 binding model. The association rate constant kₐ, the dissociation rate constant kd, and the equilibrium dissociation constant KD values of the antibody were calculated.

T1 sequence (Q16552 24-154): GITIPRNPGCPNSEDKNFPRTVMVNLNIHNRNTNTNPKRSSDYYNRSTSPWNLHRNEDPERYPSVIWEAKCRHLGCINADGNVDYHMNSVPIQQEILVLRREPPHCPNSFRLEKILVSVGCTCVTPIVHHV

B1: anti-human interleukin 17A monoclonal antibody QX002N (antibody, human IgG1, kappa, V domains shown)
VH: EVQLQESGPGLVKPSETLSLTCTVSGIDLSLFYMSWIRQPPGKGLEWIGTIHEVASSYYASWAKGRVTISKDTSKNQFSLKLSSVTAADTAVYYCARETYSSRYPYPNIWGQGTLVTVSS
VL: DIQMTQSPSSVSASVGDRVTITCQASQNIGGSLAWYQQKPGKAPKLLIYGASSLASGVPSRFSGSGSGTDFTLTISSLQPEDFATYYCQSYNTISTYGLAFGGGTKVEIKR
notes: Claim 27 joins 7/8 with 10/11; Expressed in ExpiCHO-S cells and purified on Protein A; also called 37-5; humanized clone 37 #
What is called Kd is the free concentration of one partner at which half of the binding sites on the other are occupied at equilibrium, for simple one-to-one binding. A high value points to weaker binding. For the molecule B1, the “IC50 (read off the curve)” value in experiment [1] is roughly 0.02 µg/mL. Moreover, binding in experiment [2] was characterised by a dissociation constant (Kd) of 7.07 pM.

B2: Ixekizumab (IXE) (antibody, V domains shown)
VH: QVQLVQSGAEVKKPGSSVKVSCKASGYSFTDYHIHWVRQAPGQGLEWMGVINPMYGTTDYNQRFKGRVTITADESTSTAYMELSSLRSEDTAVYYCARYDYFTGTGVYWGQGTLVTVSS
VL: DIVMTQTPLSLSVTPGQPASISCRSSRSLVHSRGNTYLHWYLQKPGQSPQLLIYKVSNRFIGVPDRFSGSGSGTDFTLKISRVEAEDVGVYYCSQSTHLPFTFGQGTKLEIKR
As a reminder, the koff is the first-order rate constant of dissociation. High values mean a short-lived complex, low ones a long-lived complex. As usually defined, the kon is a measure of how fast the partners come together. As for B2, in experiment [2], the Kd was found to be 15.4 pM, the off-rate (koff) turned out to be 2.58e-05 s⁻¹ and the kon was 1.7e+06 M⁻¹ s⁻¹.

(Values after patent US20210230264A1 (JIANGSU QYUNS THERAPEUTICS, published 2021).)
